Source: PMC4605320, “Interference activity of a minimal Type I CRISPR–Cas system from Shewanella putrefaciens”

Biological target: T1, Cas1821 (Cascade backbone);Cas1822;Cas6f (Shewanella putrefaciens …, UniProt A4Y6G1;A4Y6G2;A4Y6G3 1-315;1-336;1-183, ||)
T1 sequence 1: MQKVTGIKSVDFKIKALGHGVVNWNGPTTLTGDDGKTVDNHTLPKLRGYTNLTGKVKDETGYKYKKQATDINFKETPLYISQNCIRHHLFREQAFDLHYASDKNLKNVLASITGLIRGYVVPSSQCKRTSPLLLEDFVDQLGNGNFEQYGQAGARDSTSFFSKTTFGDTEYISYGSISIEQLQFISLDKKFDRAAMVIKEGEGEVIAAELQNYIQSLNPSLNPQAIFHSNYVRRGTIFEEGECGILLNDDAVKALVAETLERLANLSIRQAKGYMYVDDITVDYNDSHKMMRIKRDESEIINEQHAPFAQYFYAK
T1 sequence 2: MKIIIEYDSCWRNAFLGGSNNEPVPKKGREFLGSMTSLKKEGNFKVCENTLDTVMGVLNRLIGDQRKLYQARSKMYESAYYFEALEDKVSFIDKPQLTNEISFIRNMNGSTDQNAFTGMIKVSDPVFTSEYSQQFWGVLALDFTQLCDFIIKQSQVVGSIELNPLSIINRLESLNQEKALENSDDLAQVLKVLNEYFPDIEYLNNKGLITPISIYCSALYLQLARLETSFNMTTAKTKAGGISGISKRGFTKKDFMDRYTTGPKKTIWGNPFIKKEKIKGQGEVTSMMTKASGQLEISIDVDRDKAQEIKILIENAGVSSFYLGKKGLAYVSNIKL
T1 sequence 3: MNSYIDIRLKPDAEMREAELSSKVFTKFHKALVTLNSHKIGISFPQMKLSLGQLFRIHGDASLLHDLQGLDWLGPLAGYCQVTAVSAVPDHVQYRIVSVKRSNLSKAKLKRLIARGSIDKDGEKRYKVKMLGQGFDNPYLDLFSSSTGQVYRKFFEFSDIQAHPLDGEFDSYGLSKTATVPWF
Experiment: co-purification (Ni-NTA, size exclusion; RNA by urea PAGE); complex assembled in E. coli; EMSA: 6% native PAGE, 250-500 nM Cas1821, buffer and temperature not given; Cascade SEC: 50 mM HEPES-NaOH pH 7.0, 150 mM NaCl, 1 mM DTT
Conditions: protein: recombinant;recombinant;recombinant; tags: N-terminal His;none;none; chain copies: 6;1;1; 3' five base pair stem-loop (predicted)

B1: mature crRNA, spacer4 (60 nt) (structured_RNA)
RNA: CUUAGAAAUAUCGCCCAGCAAGACGCGCAAACCUAUAACCGUUCACCGCCGCACAGGCGG
binding result: binds
